Like-named read-outs stand apart in the source and are kept apart here. Numbered stars: 1 amine (or outer) side, 2 acyl side, 3 side chain; on linkers, the order of the positions; unused ones are H or OH. Square brackets hold non-standard residues; d marks the D form. Side chains are listed from the residue outwards. * marks the point of attachment. Chem. 22 = C20 diacid gamma-Glu, O=C(O)CCCCCCCCCCCCCCCCCCC(=O)N[C@@H](CCC(=O)*)C(=O)O; C20 diacid = O=C(O)CCCCCCCCCCCCCCCCCCC(=O)*; C18 diacid = O=C(O)CCCCCCCCCCCCCCCCC(=O)*; γGlu = O=C(O)[C@H](CCC(=O)[*:2])N[*:1]; Chem. 28 = not defined here; Chem. 29 = not defined here; AEEA = NCCOCCOCC(=O)O; Aib = CC(C)(N)C(=O)O
T1: human GIP receptor (hGIPR) (Homo sapiens, UniProt P48546)
T1 construct: expressed in transfected cells
T1 sequence (P48546 22-466): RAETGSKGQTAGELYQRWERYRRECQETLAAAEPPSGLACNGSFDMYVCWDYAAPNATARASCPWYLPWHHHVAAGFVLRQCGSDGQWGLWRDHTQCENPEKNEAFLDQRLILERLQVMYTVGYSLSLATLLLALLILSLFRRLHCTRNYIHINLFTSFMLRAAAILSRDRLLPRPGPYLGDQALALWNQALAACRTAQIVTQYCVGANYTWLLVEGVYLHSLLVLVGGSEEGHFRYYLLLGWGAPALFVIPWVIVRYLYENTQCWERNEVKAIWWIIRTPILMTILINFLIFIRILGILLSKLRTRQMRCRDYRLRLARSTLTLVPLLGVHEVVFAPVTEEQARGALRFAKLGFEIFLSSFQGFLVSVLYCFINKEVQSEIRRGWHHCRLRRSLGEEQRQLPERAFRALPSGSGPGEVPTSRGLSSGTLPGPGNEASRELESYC

T2: human GIP receptor (human, UniProt P48546 22-466)
T2 sequence (looked up): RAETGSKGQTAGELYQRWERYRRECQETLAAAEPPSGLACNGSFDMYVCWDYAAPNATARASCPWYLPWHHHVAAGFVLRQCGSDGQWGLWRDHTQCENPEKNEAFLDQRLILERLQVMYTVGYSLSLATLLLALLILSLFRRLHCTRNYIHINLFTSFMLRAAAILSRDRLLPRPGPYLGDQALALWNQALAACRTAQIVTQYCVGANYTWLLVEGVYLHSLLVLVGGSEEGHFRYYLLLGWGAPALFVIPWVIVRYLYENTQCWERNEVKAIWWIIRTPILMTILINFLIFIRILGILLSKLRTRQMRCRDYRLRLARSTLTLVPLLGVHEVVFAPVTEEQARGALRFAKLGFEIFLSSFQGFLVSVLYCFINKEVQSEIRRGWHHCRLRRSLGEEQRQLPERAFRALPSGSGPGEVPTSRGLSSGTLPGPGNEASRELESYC

T3: human amylin-3(a) receptor (human, UniProt P30988 25-474; O60896 24-148)
T3 sequence (looked up) 1: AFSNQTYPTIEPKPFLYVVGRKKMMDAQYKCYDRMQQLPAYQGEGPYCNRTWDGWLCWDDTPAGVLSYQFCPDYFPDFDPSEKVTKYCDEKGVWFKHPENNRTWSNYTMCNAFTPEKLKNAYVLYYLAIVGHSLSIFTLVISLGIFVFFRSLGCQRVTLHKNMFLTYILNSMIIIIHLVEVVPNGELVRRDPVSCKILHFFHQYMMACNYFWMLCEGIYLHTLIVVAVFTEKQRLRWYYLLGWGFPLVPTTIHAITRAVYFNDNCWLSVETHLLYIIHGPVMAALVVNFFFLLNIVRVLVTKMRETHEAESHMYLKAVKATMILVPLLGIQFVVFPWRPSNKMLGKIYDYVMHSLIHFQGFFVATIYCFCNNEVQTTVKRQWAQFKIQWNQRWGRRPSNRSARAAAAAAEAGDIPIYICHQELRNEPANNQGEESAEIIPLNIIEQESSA
T3 sequence (looked up) 2: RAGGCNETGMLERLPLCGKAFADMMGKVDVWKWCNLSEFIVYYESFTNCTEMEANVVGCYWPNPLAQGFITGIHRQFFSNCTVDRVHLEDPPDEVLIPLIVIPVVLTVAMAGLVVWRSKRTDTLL


Assays:
[1] = target: T1, human GIP receptor (hGIPR); test: GIP receptor assay, method A (CRE-luciferase reporter, BHK cells); assay type: cell-based
How it was run: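 BHK cells co-expressing hGIPR and a CRE-luciferase reporter were stimulated for 3 h at 37 °C with a 7-point, 10-fold compound titration in duplicate. Buffer was DMEM, 10 mM HEPES, 1% ovalbumin, 0.1% Pluronic F-68, without HSA or with 1% (w/v) HSA. EC50 [pM] came from four-parameter logistic fits of luminescence.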

[2] = target: T4, human GLP-1 receptor (hGLP-1R) (Homo sapiens, UniProt P43220); test: GLP-1 receptor assay, method A (CRE-luciferase reporter, BHK cells); assay type: cell-based
T4 construct: expressed in transfected cells
T4 sequence (P43220 24-463): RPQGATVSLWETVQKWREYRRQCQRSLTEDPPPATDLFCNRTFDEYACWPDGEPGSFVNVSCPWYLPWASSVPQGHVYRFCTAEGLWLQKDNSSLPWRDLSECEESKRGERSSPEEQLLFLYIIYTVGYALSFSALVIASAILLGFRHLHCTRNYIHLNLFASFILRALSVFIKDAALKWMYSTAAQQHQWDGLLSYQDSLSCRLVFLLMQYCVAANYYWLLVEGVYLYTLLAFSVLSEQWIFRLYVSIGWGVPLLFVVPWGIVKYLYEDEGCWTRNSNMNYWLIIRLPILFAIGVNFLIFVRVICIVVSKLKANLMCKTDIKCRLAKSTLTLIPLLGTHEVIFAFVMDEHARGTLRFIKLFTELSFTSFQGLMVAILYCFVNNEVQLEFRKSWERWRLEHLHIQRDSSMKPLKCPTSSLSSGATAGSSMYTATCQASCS
How it was run: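 Albumin sensitivity is tested by running the assay both without HSA and with 1% (w/v) HSA. Frozen BHK cells carrying hGLP-1R and CRE-driven luciferase are incubated with compound for 3 hours at 37° C. Luminescence is then read with steadylite Plus.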

[3] = target: T5, human amylin receptor (hAMYR3) (Homo sapiens, UniProt O60896+P30988); test: Amylin receptor assay, method A (CRE-luciferase reporter, BHK cells); assay type: cell-based
T5 construct: host or cells: BHK cells (Hollex-1 line expressing hCTR(a) and CRE-Luc), further transfected with human RAMP3

human GIP receptor = target: T2, human GIP receptor; test: cell-based or functional assay
[4] = target: T3, human amylin-3(a) receptor; test: cell-based or functional assay
human GLP-1 receptor = human GLP-1 receptor (human, UniProt P43220 24-463); test: cell-based or functional assay
[5] = hGIPR Potency, 1% HSA, EC50, method A, in the presence of 1% HSA
[6] = method A, absence of HSA, read-out: hGIPR Potency, no HSA, EC50
[7] = hGLP-1R Potency, 1% HSA, EC50, method A, in the presence of 1% HSA
[8] = method A, absence of HSA, read-out: hGLP-1R Potency, no HSA, EC50
[9] = hAMYR3 Potency, 1% HSA, EC50, method A, in the presence of 1% HSA
[10] = method A, absence of HSA, read-out: hAMYR3 Potency, no HSA, EC50

Row | Molecule | EC50 [1, 5] | EC50 [1, 6] | EC50 [2, 7] | EC50 [2, 8] | EC50 [3, 9] | EC50 [3, 10] | hGIPR Potency, no HSA, EC50 [pM] (human GIP receptor) | hAMYR3 Potency, no HSA, EC50 [pM] [4] | hGLP-1R Potency, no HSA, EC50 [pM] (human GLP-1 receptor)
1 | Y[Aib]EGTFTSDYSILLEEQAAREFIEWLLAGGPSSGAPPPSGGGEASHLSTAQTQRLSAELHK([AEEA-AEEA-γGlu-C18 diacid])LATLPRTETGSGSP-NH2 [Compound 49] | 16.7 pM | 4.36 pM | 0.11 nM | 0.0333 nM | 106 pM | 1.85 pM | – | – | –
2 | Y[Aib]EGTFTSDYSILLEEQAAREFIEWLLAGGPSSGEASHLSTAQTQRLSAELHRLATLPK([AEEA-AEEA-γGlu-C18 diacid])TETGSGSP-NH2 [Compound 81] | 15.8 pM | 3.31 pM | 0.0514 nM | 0.016 nM | 188 pM | 4.07 pM | – | – | –
3 | Y[Aib]EGTFTSDYSILLEEQAAREFIEWLLAGGPSSK([AEEA-AEEA-γGlu-C18 diacid])APPPSGGGEASELSTAALGRLSAELHRLATLPRTETGSGSP-NH2 [Compound 31] | – | 4.73 pM | – | 0.0478 nM | – | 2.69 pM | – | – | –
4 | Y[Aib]EGTFTSDYSILLEEQAAREFIEWLLAGGPSSK([γGlu-C20 diacid])APPPSGGGEASELSTAALGRLSAELHRLATLPRTETGSGSP-NH2 [Compound 42] | – | 8.01 pM | – | 0.0613 nM | – | 3.42 pM | – | – | –
5 | Compound 33 (reading uncertain) peptide: Y[Aib]EGTFTSDYSILLEEQAAREFIEWLLAGGPSK(Chem. 28)GAPPEASELSTAALGRLSAELHELATLPRTETGSGSP-NH2 | – | – | – | – | – | – | 3.11 pM | 10.3 pM | 32.1 pM
6 | Compound 34 (reading uncertain) peptide: Y[Aib]EGTFTSDYSILLEEQAAREFIEWLLAGGPSK(Chem. 28)GEASHLSTAQTQRLSAELHELATLPRTETGSGSP-NH2 | – | – | – | – | – | – | 1.7 pM | 6.81 pM | 21.7 pM
7 | Compound 35 (reading uncertain) peptide: Y[Aib]EGTFTSDYSILLEEQAAREFIEWLLAGGPSK(Chem. 28)GEASHLSTAQTARLSAELHELATLPRTETGSGSP-NH2 | – | – | – | – | – | – | 1.97 pM | 4.21 pM | 23.3 pM
8 | Compound 40 (reading uncertain; also: VARIANT 50 Aib (position 50 is T), mods: Aib at 2) peptide: Y[Aib]EGTFTSDYSILLEEQAAREFIEWLLAGGPSK(Chem. 28)GGGGEGGGEGEASHLSTAQTQRLSAELHELATLPRTETGSGSP-NH2 | – | – | – | – | – | – | 1.63 pM | 5.49 pM | 23.3 pM
9 | Compound 41 (peptide) peptide: Y[Aib]EGTFTSDYSILLEEQAAREFIEWLLAGGPSK(Chem. 22)GAPPPSGGGEASELSTAALGRLSAELHRLADLPRTETGSGSP-NH2 | – | – | – | – | – | – | 5.02 pM | 6.72 pM | 40.8 pM
10 | Compound 42 (peptide) peptide: Y[Aib]EGTFTSDYSILLEEQAAREFIEWLLAGGPSSK(Chem. 22)APPPSGGGEASELSTAALGRLSAELHRLATLPRTETGSGSP-NH2 | – | – | – | – | – | – | 8.01 pM | 3.42 pM | 61.3 pM
11 | Compound 44 (reading uncertain) peptide: H[Aib]HGTFTSDYSILLEEQAAREFIEWLLAGGPSK(Chem. 28)GALAQTLGTNEASELSTAALGRLSAELHRLATLPRTETGSGSP-NH2 | – | – | – | – | – | – | 6.3 pM | 3.8 pM | 3.68 pM
12 | Compound 46 (reading uncertain) peptide: H[Aib]HGTFTSDYSILLEEQAAREFIEWLLAGGPSK(Chem. 28)GAGQAPGQAPGASHLSTAALGRLSAELHRLATLPRTETGSGSP-NH2 | – | – | – | – | – | – | 5.42 pM | 4.41 pM | 4.59 pM
13 | Compound 54 (reading uncertain) peptide: Y[Aib]EGTFTSDYSILLEEQAAREFIEWLLAGGPSSGAGQAPGQAPGASK(Chem. 28)LSTAQTQRLSAELHRLATLPRTETGSGSP-NH2 | – | – | – | – | – | – | 5.56 pM | 3.02 pM | 28.8 pM
14 | Compound 66 (peptide) peptide: H[Aib]HGTFTSDYSILLEEQAAREFIEWLLAGGPSK([AEEA-AEEA-γGlu-C18 diacid])GEASQLSTAALGRLSAELHHLATLPRTETGSGSP-NH2 | – | – | – | – | – | – | 2.39 pM | 2.32 pM | 5.25 pM
15 | Compound 13 (peptide) peptide: Y[Aib]EGTFTSDYSILLEEQAAREFIEWLLAGGPSK([AEEA-AEEA-γGlu-C18 diacid])GAPPPSGGGGASELSTAALGRLSAELHRLATLPRTETGSGSP-NH2 | – | – | – | – | – | – | 2.4 pM | 2.26 pM | 37.9 pM
16 | Compound 18 (reading uncertain) peptide: Y[Aib]EGTFTSDYSILLEEQAAREFIEWLLAGGPSK(Chem. 29)GEASELSTAALGRLSAELHRLATLPRTETGSGSP-NH2 | – | – | – | – | – | – | 7.25 pM | 3.93 pM | 52.8 pM
17 | Compound 19 (reading uncertain) peptide: Y[Aib]EGTFTSDYSILLEEQAAREFIEWLLAGGPSK(Chem. 28)GEASELSTAALGRLSAELHRLATLPRTETGSGSP-NH2 | – | – | – | – | – | – | 9.44 pM | 4.24 pM | 57.9 pM
18 | Compound 20 (reading uncertain) peptide: Y[Aib]EGTFTSDYSILLEEQAAREFIEWLLAGGPSK(Chem. 29)GASELSTAALGRLSAELHRLATLPRTETGSGSP-NH2 | – | – | – | – | – | – | 4.82 pM | 3.65 pM | 40.6 pM
19 | Compound 21 (reading uncertain) peptide: Y[Aib]EGTFTSDYSILLEEQAAREFIEWLLAGGPSK(Chem. 28)GALAQTLAQTLASELSTAALGRLSAELHELATLPRTETGSGSP-NH2 | – | – | – | – | – | – | 8.63 pM | 12 pM | 41.2 pM
20 | Compound 22 (reading uncertain) peptide: H[Aib]HGTFTSDYSILLEEQAAREFIEWLLAGGPSK(Chem. 28)GAPPPSLAQTLAQTLASELSTAALGRLSAELHELATLPRTETGSGSP-NH2 | – | – | – | – | – | – | 35.8 pM | 10.9 pM | 11.3 pM

Source: patent US20260174875A1 (Novo Nordisk A/S, priority 2023, published 2026)
